What is called koff is the first-order rate constant of dissociation. Low values mean a long-lived complex, high ones a short-lived complex.

Data on 15 molecules can be found in patent US20190367589A1 (CYTOMX THERAPEUTICS, published 2019).

Sequences and labels used below:
B1: 6F8 Fab (Fab, V domains shown)
VH: EVQLLESGGGLVQPGGSLRLSCAASGFTFSSYAMSWVRQAPGKGLEWVSSIDEMGWQTYYADSVKGRFTISRDNSKNTLYLQMNSLRAEDTAVYYCAKSAAAFDYWGQGTLVTVSS
VL: DIQMTQSPSSLSASVGDRVTITCRASQSISSYLNWYQQKPGKAPKLLIYAASSLQSGVPSRFSGSGSGTDFTLTISSLQPEDFATYYCQQALVAPLTFGQGTKVEIKR
notes: C-terminally His-tagged Fab from the periplasm of E. coli; As printed its variable domains equal those of 6B7
B2: anti-Jagged 32 Fab (Fab, V domains shown)
VH: B1 VH with D52E, E53Q
VL: DIQMTQSPSSLSASVGDRVTITCRASQSISSYLNWYQQKPGKAPKLLIYAASLQSGVPSRFSGSGSGTDFTLTISSLQPEDFATYYCQQTVVAPLTFGQGTKVEIKR
notes: Fab expressed in E. coli; also called Jag32
B3: 4E7 Fab (Fab, V domains shown)
VH: B1 VH with D52E, Y59K
VL: B1 VL with A91S
notes: C-terminally His-tagged Fab from the periplasm of E. coli
B4: 6B7 Fab (Fab, V domains shown)
VH: B1 VH
VL: B1 VL
notes: as for B3

Positions count from the first letter of the chain named.

T2 sequence (VH, as listed by the source, chain 1 of 2): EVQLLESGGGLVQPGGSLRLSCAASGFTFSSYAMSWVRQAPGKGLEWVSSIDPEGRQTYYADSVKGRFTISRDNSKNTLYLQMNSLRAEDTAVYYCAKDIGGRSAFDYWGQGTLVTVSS
T2 sequence (VL, as listed by the source, chain 2 of 2): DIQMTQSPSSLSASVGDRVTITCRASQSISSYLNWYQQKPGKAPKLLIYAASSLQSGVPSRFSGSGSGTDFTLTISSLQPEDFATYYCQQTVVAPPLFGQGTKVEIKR

The first experiment has as its target T1, 4D11 Fab.
T1 construct: C-terminally His-tagged Fab from the periplasm of E. coli; also called anti-Jagged Fab 4D11; Fab 4D11
Briefly: FACS of bacteria displaying the peptide, labeled Fab 4D11, normalized to expression.
For the molecule GCNIWLNGGDCRGWVDPLQG [masking moiety JS5872], the binding result is “binds”.

For the molecule CNIWLVGGDCRGWQG [masking moiety JS5342], the binding result is listed as “binds”.

As for GCNIWLVGGDCRGWIGDTNG [masking moiety JS5877], the binding result is given as “binds”.

As to GCNIWLVGGDCRGWIEDSNG [masking moiety JS5885], the binding result is recorded as “binds”.

Regarding GCNIWANGGDCRGWIDNIDG [masking moiety JS5887], the binding result is recorded as “binds”.

Another experiment addresses T2, anti-Jagged antibody 4D11 (fully human IgG).
T2 construct: Human IgG1 kappa from HEK-293 cells; Labeled with Alexa Fluor 680 in the tissue stainings, biotinylated in the peptide screens; also called anti-Jagged 4D11; 4D11 antibody
Kind of experiment: FACS of bacteria displaying the peptide.
Turning to CNLWVSGGDCGGLQG [masking moiety JS4896], the binding result is recorded as “binds”.

For the molecule PWCMQRQDFLRCPQP [masking moiety JS4874], the binding result was “binds”.

Regarding SCSLWTSGSCLPHSP [masking moiety JS4897], the binding result is given as “binds”.

For CFLYSCTDVSYWNNT [masking moiety JS4906], the binding result is listed as “binds”.

For YCLQLPHYMQAMCGR [masking moiety JS4899], the binding result was “binds”.

Consider QLGLPAYMCTFECLR [masking moiety JS4879], for which the binding result is recorded as “binds”.

For another experiment, the target named is T1, 4D11 Fab. Kind of experiment: FACS of bacteria displaying the peptide.
Turning to CNLWVSGGDCGGLQG [masking moiety JS4896], the binding result is recorded as “binds”.

Regarding PWCMQRQDFLRCPQP [masking moiety JS4874], the binding result is “binds”.

In the case of SCSLWTSGSCLPHSP [masking moiety JS4897], the binding result is reported as “binds”.

On to CFLYSCTDVSYWNNT [masking moiety JS4906], for which the binding result is “binds”.

With YCLQLPHYMQAMCGR [masking moiety JS4899], the binding result is “binds”.

Regarding QLGLPAYMCTFECLR [masking moiety JS4879], the binding result is “binds”.

In another experiment the target is T3, human Jagged 1-Fc (extracellular domain of human Jagged 1 fused to the Fc portion of human IgG1); R&D Systems … (human, UniProt P78504 34-1067).
T3 construct: extracellular domain; Bought reagent; also called hJag1; h Jagged 1; not shown: Fc portion of human IgG1
Briefly: BLI (Octet), Jagged-Fc on anti-human Fc tips, Fab in solution. The protocol:
Off rates for individual Fabs were measured using an Octet (ForteBio, Menlo Park, Calif.). […] Following a wash, the loaded tips were exposed to 25 μM Fab until binding had reached equilibrium. The tips were then removed to a fresh solution with no Fab, and the rate of Fab dissociation was measured.
Background: BLI is a label-free optical method that tracks binding on a fibre tip over time.
In the case of B1, the koff was found to be 0.0012 s⁻¹.

With B2, the off-rate constant (koff) was 0.027 s⁻¹.

B3: the koff was determined as 0.00069 s⁻¹.

In turn, B4 yielded a koff of 0.00035 s⁻¹.
